# Laboratory results as given in article PMC4253547 (Leukemia research, 2014).
# Where no end group is shown, it is not given here.
# T1: MBP-AF9 (WT) (UniProt P42568 1-568)
# T1 sequence (looked up): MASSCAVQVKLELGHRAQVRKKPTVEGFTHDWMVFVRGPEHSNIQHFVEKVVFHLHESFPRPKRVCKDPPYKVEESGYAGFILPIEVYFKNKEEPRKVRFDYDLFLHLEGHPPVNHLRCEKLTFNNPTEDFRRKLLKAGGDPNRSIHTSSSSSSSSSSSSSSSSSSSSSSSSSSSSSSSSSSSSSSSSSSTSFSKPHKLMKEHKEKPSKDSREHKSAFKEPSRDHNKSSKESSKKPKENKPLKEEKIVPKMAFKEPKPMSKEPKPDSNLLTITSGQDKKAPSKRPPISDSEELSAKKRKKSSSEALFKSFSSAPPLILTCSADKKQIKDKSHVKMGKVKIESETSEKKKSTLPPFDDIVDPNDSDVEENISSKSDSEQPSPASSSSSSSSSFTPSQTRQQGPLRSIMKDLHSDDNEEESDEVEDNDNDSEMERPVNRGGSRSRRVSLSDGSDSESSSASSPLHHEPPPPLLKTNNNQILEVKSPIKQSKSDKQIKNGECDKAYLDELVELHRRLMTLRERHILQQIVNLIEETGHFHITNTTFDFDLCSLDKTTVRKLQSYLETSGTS
# T2: MBP-AF9 (D544R) (UniProt P42568 1-568, D544R)
# T2 sequence (looked up): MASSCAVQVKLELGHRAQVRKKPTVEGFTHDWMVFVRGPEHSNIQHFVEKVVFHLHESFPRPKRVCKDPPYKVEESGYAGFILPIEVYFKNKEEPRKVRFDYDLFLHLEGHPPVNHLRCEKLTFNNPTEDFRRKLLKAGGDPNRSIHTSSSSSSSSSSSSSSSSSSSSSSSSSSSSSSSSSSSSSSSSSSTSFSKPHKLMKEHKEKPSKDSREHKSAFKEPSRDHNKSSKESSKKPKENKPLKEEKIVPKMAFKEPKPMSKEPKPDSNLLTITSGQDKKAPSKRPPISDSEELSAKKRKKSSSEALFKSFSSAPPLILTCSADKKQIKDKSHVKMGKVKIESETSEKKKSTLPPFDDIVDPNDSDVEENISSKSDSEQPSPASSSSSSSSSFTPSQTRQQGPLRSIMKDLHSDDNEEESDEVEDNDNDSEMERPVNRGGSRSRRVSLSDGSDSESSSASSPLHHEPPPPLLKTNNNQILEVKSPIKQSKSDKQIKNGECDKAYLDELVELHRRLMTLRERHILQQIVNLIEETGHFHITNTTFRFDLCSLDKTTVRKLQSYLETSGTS
# How the values were obtained:
# [1] = biological target: MLLT3 (Homo sapiens) (UniProt P42568); details: cited from earlier work
# [2] = biological target: T1, MBP-AF9 (WT); experiment: other fluorescence titration
# [3] = biological target: T2, MBP-AF9 (D544R); experiment: other fluorescence titration
# AFF1, sequence (P51825 whole entry): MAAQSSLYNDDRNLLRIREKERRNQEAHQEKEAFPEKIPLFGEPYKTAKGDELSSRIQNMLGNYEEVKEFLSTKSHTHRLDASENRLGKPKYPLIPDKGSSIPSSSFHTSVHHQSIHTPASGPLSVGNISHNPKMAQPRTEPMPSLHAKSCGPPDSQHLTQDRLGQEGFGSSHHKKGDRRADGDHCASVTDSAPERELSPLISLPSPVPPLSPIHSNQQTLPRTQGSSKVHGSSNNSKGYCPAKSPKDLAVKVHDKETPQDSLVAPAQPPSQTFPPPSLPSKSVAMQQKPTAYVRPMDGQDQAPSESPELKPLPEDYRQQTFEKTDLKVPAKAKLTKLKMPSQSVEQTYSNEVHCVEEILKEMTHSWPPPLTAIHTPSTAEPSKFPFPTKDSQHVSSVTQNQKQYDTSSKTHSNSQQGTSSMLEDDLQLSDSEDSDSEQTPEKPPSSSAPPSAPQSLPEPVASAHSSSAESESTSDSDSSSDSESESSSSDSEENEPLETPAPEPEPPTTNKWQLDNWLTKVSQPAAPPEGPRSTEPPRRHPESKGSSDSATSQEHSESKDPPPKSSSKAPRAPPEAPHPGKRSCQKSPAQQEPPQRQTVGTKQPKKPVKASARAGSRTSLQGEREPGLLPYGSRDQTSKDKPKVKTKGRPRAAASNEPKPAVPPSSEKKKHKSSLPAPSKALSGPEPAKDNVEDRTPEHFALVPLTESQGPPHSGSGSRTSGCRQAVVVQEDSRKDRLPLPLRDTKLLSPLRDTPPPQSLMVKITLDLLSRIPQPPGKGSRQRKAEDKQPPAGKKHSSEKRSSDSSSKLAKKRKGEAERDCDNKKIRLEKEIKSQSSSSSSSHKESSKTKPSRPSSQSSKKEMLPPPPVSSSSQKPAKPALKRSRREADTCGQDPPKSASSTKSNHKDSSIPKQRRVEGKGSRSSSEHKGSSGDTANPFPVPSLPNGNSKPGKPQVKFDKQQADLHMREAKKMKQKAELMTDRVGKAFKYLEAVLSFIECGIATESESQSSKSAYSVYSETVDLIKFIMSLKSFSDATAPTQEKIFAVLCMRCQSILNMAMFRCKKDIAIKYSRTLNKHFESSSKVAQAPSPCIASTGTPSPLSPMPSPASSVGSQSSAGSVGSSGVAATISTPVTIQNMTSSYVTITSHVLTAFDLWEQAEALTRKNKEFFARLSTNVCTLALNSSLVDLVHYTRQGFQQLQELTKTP
Kd [2] [nM],Kd [3] [nM],Molecule,Kd [1] [nM]
,,AFF1 (from UniProt P51825),0.17
0.2,,LIVKIDLNLLTRIP (also: fluorescein (position not given here)) [Fluorescein AFF4 (WT) peptide],
37.4,0.21,LIVDIDLNLLTRIP (also: fluorescein (position not given here)) [Fluorescein AFF4 (K717D) peptide],
